According to patent US20210139548A1 (published 2021):
One block for each binder: values may come before it. *1 amine or outer side, *2 acyl side, *3 side chain or, on linkers, in order; H or OH if unused. Side-chain parts run from the residue outwards. The star is where a group is joined. C18 diacid = O=C(O)CCCCCCCCCCCCCCCCC(=O)*; γGlu = O=C(O)[C@H](CCC(=O)[*:2])N[*:1]; Isovaleryl = CC(C)CC(=O)*; AEEA = NCCOCCOCC(=O)O

Target: T1, human neuropeptide Y2 receptor (human, UniProt P49146 1-381)
T1 construct: whole, on cells; also called hNPY2 receptor; hNPY2-R
T1 sequence (looked up): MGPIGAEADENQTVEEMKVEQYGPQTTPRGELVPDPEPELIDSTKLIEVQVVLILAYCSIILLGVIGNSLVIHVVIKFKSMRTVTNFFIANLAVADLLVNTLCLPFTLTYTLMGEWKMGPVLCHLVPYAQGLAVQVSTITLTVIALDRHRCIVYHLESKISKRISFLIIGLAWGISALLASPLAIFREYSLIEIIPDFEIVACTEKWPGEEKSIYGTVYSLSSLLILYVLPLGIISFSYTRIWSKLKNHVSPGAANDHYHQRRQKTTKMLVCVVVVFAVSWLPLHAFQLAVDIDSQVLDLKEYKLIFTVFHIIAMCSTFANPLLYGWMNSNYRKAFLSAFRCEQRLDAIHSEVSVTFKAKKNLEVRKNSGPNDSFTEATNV
Assay: radioligand competition (125I-PYY(1-36)), hNPY2R membranes
Method: The filtration RLB assay was carried out in 96-well plates in a final volume of 100 μl per well. Freeze-dried test peptides were dissolved in 100% dimethyl sulfoxide (DMSO) to stock solutions of 1 mM and serial dilutions were performed in assay buffer (50 mM HEPES, 5 mM MgCl₂, 1 mM CaCl₂, pH 7.4) containing 0.2% ovalbumin. […] Next, 80 μL membranes (HTS066M, ChemiSCREEN™ Human Neuropeptide Y2 Receptor Membrane Preparation, CHEMICON) were added to each well to give a final protein concentration of 0.5 μg/well. The plates were sealed and incubated at room temperature for 2 hours in a plate shaker set at 400 rpm. The incubation was stopped by vacuum filtration onto 0.5% poly-ethylene amine (PEI) presoaked GF/C filters using a 96-well FilterMate™ harvester (Perkin Elmer) followed by four washes with 300 μl/well ice-cold wash buffer (50 mM HEPES, 500 mM NaCl, pH7.4). Filter plates were then dried for 60 min at room temperature and the bottom of the plates was sealed with backing tape UniFilter-96. Finally, 50 μl/well scintillation counter cocktail (Microscint20, Packard) was added and the radioactivity was counted in the Packard TopCount NXT scintillation counter. IC₅₀ values (the half maximal inhibitory concentration of the agonist) were calculated by nonlinear regression analysis of sigmoidal dose-response curves.

- Ki: 2.89 nM
B2: Compound 15 (peptide)
peptide: Isovaleryl-APEK([AEEA-AEEA-γGlu-C18 diacid])PEEDASPEEIQRYEVSLRHYYNWLTRQRY-NH2
SMILES: CC[C@H](C)[C@H](NC(=O)[C@H](CCC(=O)O)NC(=O)[C@H](CCC(=O)O)NC(=O)[C@@H]1CCCN1C(=O)[C@H](CO)NC(=O)[C@H](C)NC(=O)[C@H](CC(=O)O)NC(=O)[C@H](CCC(=O)O)NC(=O)[C@H](CCC(=O)O)NC(=O)[C@@H]1CCCN1C(=O)[C@H](CCCCNC(=O)COCCOCCNC(=O)COCCOCCNC(=O)CC[C@H](NC(=O)CCCCCCCCCCCCCCCCC(=O)O)C(=O)O)NC(=O)[C@H](CCC(=O)O)NC(=O)[C@@H]1CCCN1C(=O)[C@H](C)NC(=O)CC(C)C)C(=O)N[C@@H](CCC(N)=O)C(=O)N[C@@H](CCCNC(=N)N)C(=O)N[C@@H](Cc1ccc(O)cc1)C(=O)N[C@@H](CCC(=O)O)C(=O)N[C@H](C(=O)N[C@@H](CO)C(=O)N[C@@H](CC(C)C)C(=O)N[C@@H](CCCNC(=N)N)C(=O)N[C@@H](Cc1c[nH]cn1)C(=O)N[C@@H](Cc1ccc(O)cc1)C(=O)N[C@@H](Cc1ccc(O)cc1)C(=O)N[C@@H](CC(N)=O)C(=O)N[C@@H](Cc1c[nH]c2ccccc12)C(=O)N[C@@H](CC(C)C)C(=O)N[C@H](C(=O)N[C@@H](CCCNC(=N)N)C(=O)N[C@@H](CCC(N)=O)C(=O)N[C@@H](CCCNC(=N)N)C(=O)N[C@@H](Cc1ccc(O)cc1)C(N)=O)[C@@H](C)O)C(C)C

- Ki: 0.31 nM
B3: Compound 14 (peptide)
peptide: Isovaleryl-APEK([AEEA-AEEA-γGlu-C18 diacid])PEADATPEELQRYYVSLRHYYNWLTRQRY-NH2
SMILES: CC(C)CC(=O)N[C@@H](C)C(=O)N1CCC[C@H]1C(=O)N[C@@H](CCC(=O)O)C(=O)N[C@@H](CCCCNC(=O)COCCOCCNC(=O)COCCOCCNC(=O)CC[C@H](NC(=O)CCCCCCCCCCCCCCCCC(=O)O)C(=O)O)C(=O)N1CCC[C@H]1C(=O)N[C@@H](CCC(=O)O)C(=O)N[C@@H](C)C(=O)N[C@@H](CC(=O)O)C(=O)N[C@@H](C)C(=O)N[C@H](C(=O)N1CCC[C@H]1C(=O)N[C@@H](CCC(=O)O)C(=O)N[C@@H](CCC(=O)O)C(=O)N[C@@H](CC(C)C)C(=O)N[C@@H](CCC(N)=O)C(=O)N[C@@H](CCCNC(=N)N)C(=O)N[C@@H](Cc1ccc(O)cc1)C(=O)N[C@@H](Cc1ccc(O)cc1)C(=O)N[C@H](C(=O)N[C@@H](CO)C(=O)N[C@@H](CC(C)C)C(=O)N[C@@H](CCCNC(=N)N)C(=O)N[C@@H](Cc1c[nH]cn1)C(=O)N[C@@H](Cc1ccc(O)cc1)C(=O)N[C@@H](Cc1ccc(O)cc1)C(=O)N[C@@H](CC(N)=O)C(=O)N[C@@H](Cc1c[nH]c2ccccc12)C(=O)N[C@@H](CC(C)C)C(=O)N[C@H](C(=O)N[C@@H](CCCNC(=N)N)C(=O)N[C@@H](CCC(N)=O)C(=O)N[C@@H](CCCNC(=N)N)C(=O)N[C@@H](Cc1ccc(O)cc1)C(N)=O)[C@@H](C)O)C(C)C)[C@@H](C)O

- Ki: 1.29 nM
B5: Compound 13 (peptide)
peptide: Isovaleryl-APEK([AEEA-AEEA-γGlu-C18 diacid])PEEDAAPEELQQYYVSLRHYYNWLTRQRY-NH2
SMILES: CC(C)CC(=O)N[C@@H](C)C(=O)N1CCC[C@H]1C(=O)N[C@@H](CCC(=O)O)C(=O)N[C@@H](CCCCNC(=O)COCCOCCNC(=O)COCCOCCNC(=O)CC[C@H](NC(=O)CCCCCCCCCCCCCCCCC(=O)O)C(=O)O)C(=O)N1CCC[C@H]1C(=O)N[C@@H](CCC(=O)O)C(=O)N[C@@H](CCC(=O)O)C(=O)N[C@@H](CC(=O)O)C(=O)N[C@@H](C)C(=O)N[C@@H](C)C(=O)N1CCC[C@H]1C(=O)N[C@@H](CCC(=O)O)C(=O)N[C@@H](CCC(=O)O)C(=O)N[C@@H](CC(C)C)C(=O)N[C@@H](CCC(N)=O)C(=O)N[C@@H](CCC(N)=O)C(=O)N[C@@H](Cc1ccc(O)cc1)C(=O)N[C@@H](Cc1ccc(O)cc1)C(=O)N[C@H](C(=O)N[C@@H](CO)C(=O)N[C@@H](CC(C)C)C(=O)N[C@@H](CCCNC(=N)N)C(=O)N[C@@H](Cc1c[nH]cn1)C(=O)N[C@@H](Cc1ccc(O)cc1)C(=O)N[C@@H](Cc1ccc(O)cc1)C(=O)N[C@@H](CC(N)=O)C(=O)N[C@@H](Cc1c[nH]c2ccccc12)C(=O)N[C@@H](CC(C)C)C(=O)N[C@H](C(=O)N[C@@H](CCCNC(=N)N)C(=O)N[C@@H](CCC(N)=O)C(=O)N[C@@H](CCCNC(=N)N)C(=O)N[C@@H](Cc1ccc(O)cc1)C(N)=O)[C@@H](C)O)C(C)C

Continued, binder first:

B1: Compound 9 (peptide)
peptide: Isovaleryl-APEK([AEEA-AEEA-γGlu-C18 diacid])PEEDASPEEIQRYYVELRHYYNWLTRQRY-NH2
SMILES: CC[C@H](C)[C@H](NC(=O)[C@H](CCC(=O)O)NC(=O)[C@H](CCC(=O)O)NC(=O)[C@@H]1CCCN1C(=O)[C@H](CO)NC(=O)[C@H](C)NC(=O)[C@H](CC(=O)O)NC(=O)[C@H](CCC(=O)O)NC(=O)[C@H](CCC(=O)O)NC(=O)[C@@H]1CCCN1C(=O)[C@H](CCCCNC(=O)COCCOCCNC(=O)COCCOCCNC(=O)CC[C@H](NC(=O)CCCCCCCCCCCCCCCCC(=O)O)C(=O)O)NC(=O)[C@H](CCC(=O)O)NC(=O)[C@@H]1CCCN1C(=O)[C@H](C)NC(=O)CC(C)C)C(=O)N[C@@H](CCC(N)=O)C(=O)N[C@@H](CCCNC(=N)N)C(=O)N[C@@H](Cc1ccc(O)cc1)C(=O)N[C@@H](Cc1ccc(O)cc1)C(=O)N[C@H](C(=O)N[C@@H](CCC(=O)O)C(=O)N[C@@H](CC(C)C)C(=O)N[C@@H](CCCNC(=N)N)C(=O)N[C@@H](Cc1c[nH]cn1)C(=O)N[C@@H](Cc1ccc(O)cc1)C(=O)N[C@@H](Cc1ccc(O)cc1)C(=O)N[C@@H](CC(N)=O)C(=O)N[C@@H](Cc1c[nH]c2ccccc12)C(=O)N[C@@H](CC(C)C)C(=O)N[C@H](C(=O)N[C@@H](CCCNC(=N)N)C(=O)N[C@@H](CCC(N)=O)C(=O)N[C@@H](CCCNC(=N)N)C(=O)N[C@@H](Cc1ccc(O)cc1)C(N)=O)[C@@H](C)O)C(C)C
- Ki: 1.22 nM

B4: Compound 10 (peptide)
peptide: Isovaleryl-APEK([AEEA-AEEA-γGlu-C18 diacid])PEADASPEETQRYYVSLRHYYNWLTRQRY-NH2
SMILES: CC(C)CC(=O)N[C@@H](C)C(=O)N1CCC[C@H]1C(=O)N[C@@H](CCC(=O)O)C(=O)N[C@@H](CCCCNC(=O)COCCOCCNC(=O)COCCOCCNC(=O)CC[C@H](NC(=O)CCCCCCCCCCCCCCCCC(=O)O)C(=O)O)C(=O)N1CCC[C@H]1C(=O)N[C@@H](CCC(=O)O)C(=O)N[C@@H](C)C(=O)N[C@@H](CC(=O)O)C(=O)N[C@@H](C)C(=O)N[C@@H](CO)C(=O)N1CCC[C@H]1C(=O)N[C@@H](CCC(=O)O)C(=O)N[C@@H](CCC(=O)O)C(=O)N[C@H](C(=O)N[C@@H](CCC(N)=O)C(=O)N[C@@H](CCCNC(=N)N)C(=O)N[C@@H](Cc1ccc(O)cc1)C(=O)N[C@@H](Cc1ccc(O)cc1)C(=O)N[C@H](C(=O)N[C@@H](CO)C(=O)N[C@@H](CC(C)C)C(=O)N[C@@H](CCCNC(=N)N)C(=O)N[C@@H](Cc1c[nH]cn1)C(=O)N[C@@H](Cc1ccc(O)cc1)C(=O)N[C@@H](Cc1ccc(O)cc1)C(=O)N[C@@H](CC(N)=O)C(=O)N[C@@H](Cc1c[nH]c2ccccc12)C(=O)N[C@@H](CC(C)C)C(=O)N[C@H](C(=O)N[C@@H](CCCNC(=N)N)C(=O)N[C@@H](CCC(N)=O)C(=O)N[C@@H](CCCNC(=N)N)C(=O)N[C@@H](Cc1ccc(O)cc1)C(N)=O)[C@@H](C)O)C(C)C)[C@@H](C)O
- Ki: 1.28 nM
